In patent US20180155451A1 (published 2018) one finds Ho/Con_1a and He/Con_1a data, which are given here for 16 molecules.

B1: GpH7-B3 variant P271_06M/GpL16-k0 (antibody, human IgG1, kappa)
heavy: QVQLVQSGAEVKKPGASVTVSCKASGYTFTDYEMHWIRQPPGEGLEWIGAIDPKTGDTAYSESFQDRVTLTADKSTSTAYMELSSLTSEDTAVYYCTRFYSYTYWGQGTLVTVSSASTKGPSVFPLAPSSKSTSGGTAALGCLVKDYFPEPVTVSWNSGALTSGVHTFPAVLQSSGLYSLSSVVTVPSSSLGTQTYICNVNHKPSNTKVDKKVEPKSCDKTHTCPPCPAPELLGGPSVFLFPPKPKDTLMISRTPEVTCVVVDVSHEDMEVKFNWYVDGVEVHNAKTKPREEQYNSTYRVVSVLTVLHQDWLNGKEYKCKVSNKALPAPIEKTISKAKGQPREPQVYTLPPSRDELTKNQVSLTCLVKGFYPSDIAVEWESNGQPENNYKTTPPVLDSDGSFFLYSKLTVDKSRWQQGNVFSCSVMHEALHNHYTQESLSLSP
light: DIVMTQSPLSLPVTPGEPASISCQASESLVHSNRNTYLHWYLQKPGQSPQLLIYKVSNRFSGVPDRFSGSGSGTDFTLKISRVEAEDVGVYYCSQNTHVPPTFGQGTKVEIERTVAAPSVFIFPPSDEQLKSGTASVVCLLNNFYPREAKVQWKVDNALQSGNSQESVTEQDSKDSTYSLSSTLTLSKADYEKHKVYACEVTHQGLSSPVTKSFNRGEC
notes: homodimerized; also called Ho Ab P271_06M
B2: GpH7-B3 variant P271_13S/GpL16-k0 (antibody, human IgG1, kappa)
heavy: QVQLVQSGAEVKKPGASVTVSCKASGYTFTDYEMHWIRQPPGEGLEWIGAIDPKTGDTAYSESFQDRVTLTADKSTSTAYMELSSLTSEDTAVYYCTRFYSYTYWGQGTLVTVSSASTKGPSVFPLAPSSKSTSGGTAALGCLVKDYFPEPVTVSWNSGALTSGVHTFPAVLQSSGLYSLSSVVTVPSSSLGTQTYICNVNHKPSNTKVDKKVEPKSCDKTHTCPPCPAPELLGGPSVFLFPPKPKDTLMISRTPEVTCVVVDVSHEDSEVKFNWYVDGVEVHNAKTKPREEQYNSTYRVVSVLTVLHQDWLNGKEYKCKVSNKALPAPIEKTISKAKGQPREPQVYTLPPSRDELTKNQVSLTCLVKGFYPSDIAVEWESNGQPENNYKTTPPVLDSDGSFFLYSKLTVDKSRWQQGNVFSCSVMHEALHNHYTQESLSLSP
light: DIVMTQSPLSLPVTPGEPASISCQASESLVHSNRNTYLHWYLQKPGQSPQLLIYKVSNRFSGVPDRFSGSGSGTDFTLKISRVEAEDVGVYYCSQNTHVPPTFGQGTKVEIERTVAAPSVFIFPPSDEQLKSGTASVVCLLNNFYPREAKVQWKVDNALQSGNSQESVTEQDSKDSTYSLSSTLTLSKADYEKHKVYACEVTHQGLSSPVTKSFNRGEC
notes: homodimerized; also called Ho Ab P271_13S
B3: GpH7-B3 variant Q295_02A/GpL16-k0 (antibody, human IgG1, kappa)
heavy: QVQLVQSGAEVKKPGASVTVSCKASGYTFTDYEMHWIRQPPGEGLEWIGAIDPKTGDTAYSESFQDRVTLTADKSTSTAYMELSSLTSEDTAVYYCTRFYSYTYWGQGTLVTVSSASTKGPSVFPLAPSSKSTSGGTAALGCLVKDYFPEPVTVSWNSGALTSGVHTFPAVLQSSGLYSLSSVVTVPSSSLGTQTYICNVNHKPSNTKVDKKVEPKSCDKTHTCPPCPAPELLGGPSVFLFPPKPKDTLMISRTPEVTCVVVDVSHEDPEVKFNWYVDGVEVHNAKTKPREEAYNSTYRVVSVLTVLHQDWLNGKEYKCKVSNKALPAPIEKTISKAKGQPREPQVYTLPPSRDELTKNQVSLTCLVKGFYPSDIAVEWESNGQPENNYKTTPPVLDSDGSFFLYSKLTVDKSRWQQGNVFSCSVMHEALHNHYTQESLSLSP
light: DIVMTQSPLSLPVTPGEPASISCQASESLVHSNRNTYLHWYLQKPGQSPQLLIYKVSNRFSGVPDRFSGSGSGTDFTLKISRVEAEDVGVYYCSQNTHVPPTFGQGTKVEIERTVAAPSVFIFPPSDEQLKSGTASVVCLLNNFYPREAKVQWKVDNALQSGNSQESVTEQDSKDSTYSLSSTLTLSKADYEKHKVYACEVTHQGLSSPVTKSFNRGEC
notes: homodimerized; also called Ho Ab Q295_02A
B4: GpH7-B3 variant P271_12R/GpL16-k0 (antibody, human IgG1, kappa)
heavy: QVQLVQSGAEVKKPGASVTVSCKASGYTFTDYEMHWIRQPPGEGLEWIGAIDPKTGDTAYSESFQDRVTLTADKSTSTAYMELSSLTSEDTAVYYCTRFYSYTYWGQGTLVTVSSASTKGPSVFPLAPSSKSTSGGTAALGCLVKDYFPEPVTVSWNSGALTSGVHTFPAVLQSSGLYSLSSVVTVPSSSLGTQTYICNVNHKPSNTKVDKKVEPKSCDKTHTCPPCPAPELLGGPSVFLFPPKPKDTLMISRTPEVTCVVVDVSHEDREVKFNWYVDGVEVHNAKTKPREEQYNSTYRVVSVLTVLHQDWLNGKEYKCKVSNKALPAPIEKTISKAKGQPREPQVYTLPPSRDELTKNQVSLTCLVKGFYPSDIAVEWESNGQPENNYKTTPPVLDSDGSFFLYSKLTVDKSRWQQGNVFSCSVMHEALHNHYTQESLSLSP
light: DIVMTQSPLSLPVTPGEPASISCQASESLVHSNRNTYLHWYLQKPGQSPQLLIYKVSNRFSGVPDRFSGSGSGTDFTLKISRVEAEDVGVYYCSQNTHVPPTFGQGTKVEIERTVAAPSVFIFPPSDEQLKSGTASVVCLLNNFYPREAKVQWKVDNALQSGNSQESVTEQDSKDSTYSLSSTLTLSKADYEKHKVYACEVTHQGLSSPVTKSFNRGEC
notes: homodimerized; also called Ho Ab P271_12R
B5: GpH7-B3 variant P271_20W/GpL16-k0 (antibody, human IgG1, kappa)
heavy: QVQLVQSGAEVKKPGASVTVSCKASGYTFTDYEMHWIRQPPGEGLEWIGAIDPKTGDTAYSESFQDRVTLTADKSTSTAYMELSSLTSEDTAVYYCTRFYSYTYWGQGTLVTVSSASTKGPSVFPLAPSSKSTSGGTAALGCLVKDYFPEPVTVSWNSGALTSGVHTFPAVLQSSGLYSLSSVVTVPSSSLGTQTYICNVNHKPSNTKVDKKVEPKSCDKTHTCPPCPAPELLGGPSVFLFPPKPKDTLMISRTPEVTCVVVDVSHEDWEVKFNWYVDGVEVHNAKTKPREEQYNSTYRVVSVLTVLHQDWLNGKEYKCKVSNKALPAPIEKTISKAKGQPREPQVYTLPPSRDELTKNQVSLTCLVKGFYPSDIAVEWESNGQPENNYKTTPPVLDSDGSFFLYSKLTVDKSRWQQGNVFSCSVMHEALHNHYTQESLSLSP
light: DIVMTQSPLSLPVTPGEPASISCQASESLVHSNRNTYLHWYLQKPGQSPQLLIYKVSNRFSGVPDRFSGSGSGTDFTLKISRVEAEDVGVYYCSQNTHVPPTFGQGTKVEIERTVAAPSVFIFPPSDEQLKSGTASVVCLLNNFYPREAKVQWKVDNALQSGNSQESVTEQDSKDSTYSLSSTLTLSKADYEKHKVYACEVTHQGLSSPVTKSFNRGEC
notes: homodimerized; also called Ho Ab P271_20W
B6: GpH7-B3 variant P271_11K/GpL16-k0 (antibody, human IgG1, kappa)
heavy: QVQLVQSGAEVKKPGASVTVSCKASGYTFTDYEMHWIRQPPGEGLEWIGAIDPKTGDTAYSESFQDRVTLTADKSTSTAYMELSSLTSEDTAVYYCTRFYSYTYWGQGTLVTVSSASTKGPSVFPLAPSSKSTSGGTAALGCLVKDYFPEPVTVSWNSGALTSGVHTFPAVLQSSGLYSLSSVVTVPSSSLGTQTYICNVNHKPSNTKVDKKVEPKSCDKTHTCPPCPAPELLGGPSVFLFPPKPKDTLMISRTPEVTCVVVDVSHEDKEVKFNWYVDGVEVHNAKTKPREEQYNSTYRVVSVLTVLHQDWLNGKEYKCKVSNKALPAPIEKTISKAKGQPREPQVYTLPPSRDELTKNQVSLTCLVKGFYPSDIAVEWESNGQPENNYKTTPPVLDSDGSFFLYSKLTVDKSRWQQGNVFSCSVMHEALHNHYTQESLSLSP
light: DIVMTQSPLSLPVTPGEPASISCQASESLVHSNRNTYLHWYLQKPGQSPQLLIYKVSNRFSGVPDRFSGSGSGTDFTLKISRVEAEDVGVYYCSQNTHVPPTFGQGTKVEIERTVAAPSVFIFPPSDEQLKSGTASVVCLLNNFYPREAKVQWKVDNALQSGNSQESVTEQDSKDSTYSLSSTLTLSKADYEKHKVYACEVTHQGLSSPVTKSFNRGEC
notes: homodimerized; also called Ho Ab P271_11K
B7: GpH7-B3 variant P271_07I/GpL16-k0 (antibody, human IgG1, kappa)
heavy: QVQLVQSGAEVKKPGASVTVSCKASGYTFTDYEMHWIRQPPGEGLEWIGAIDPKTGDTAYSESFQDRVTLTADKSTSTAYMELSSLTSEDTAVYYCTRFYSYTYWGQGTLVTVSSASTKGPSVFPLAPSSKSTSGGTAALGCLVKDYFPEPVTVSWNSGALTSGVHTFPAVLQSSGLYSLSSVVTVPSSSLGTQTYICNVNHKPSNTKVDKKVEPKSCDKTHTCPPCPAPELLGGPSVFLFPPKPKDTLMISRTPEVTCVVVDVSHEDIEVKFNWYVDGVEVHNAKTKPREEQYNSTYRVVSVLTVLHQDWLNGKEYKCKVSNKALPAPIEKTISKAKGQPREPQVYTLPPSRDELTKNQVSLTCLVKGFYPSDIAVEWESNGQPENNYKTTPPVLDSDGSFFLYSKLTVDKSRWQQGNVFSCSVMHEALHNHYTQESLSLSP
light: DIVMTQSPLSLPVTPGEPASISCQASESLVHSNRNTYLHWYLQKPGQSPQLLIYKVSNRFSGVPDRFSGSGSGTDFTLKISRVEAEDVGVYYCSQNTHVPPTFGQGTKVEIERTVAAPSVFIFPPSDEQLKSGTASVVCLLNNFYPREAKVQWKVDNALQSGNSQESVTEQDSKDSTYSLSSTLTLSKADYEKHKVYACEVTHQGLSSPVTKSFNRGEC
notes: homodimerized; also called Ho Ab P271_07I
B8: GpH7-A5/GpH7-B3 variant E269_04F/GpL16-k0 (antibody, human IgG1, kappa)
heavy 1: not shown
heavy 2: not shown
light: DIVMTQSPLSLPVTPGEPASISCQASESLVHSNRNTYLHWYLQKPGQSPQLLIYKVSNRFSGVPDRFSGSGSGTDFTLKISRVEAEDVGVYYCSQNTHVPPTFGQGTKVEIERTVAAPSVFIFPPSDEQLKSGTASVVCLLNNFYPREAKVQWKVDNALQSGNSQESVTEQDSKDSTYSLSSTLTLSKADYEKHKVYACEVTHQGLSSPVTKSFNRGEC
notes: heterodimerized; also called He Ab E269_04F
B9: GpH7-A5/GpH7-B3 variant A330_05P/GpL16-k0 (antibody, human IgG1, kappa)
heavy 1: not shown
heavy 2: not shown
light: DIVMTQSPLSLPVTPGEPASISCQASESLVHSNRNTYLHWYLQKPGQSPQLLIYKVSNRFSGVPDRFSGSGSGTDFTLKISRVEAEDVGVYYCSQNTHVPPTFGQGTKVEIERTVAAPSVFIFPPSDEQLKSGTASVVCLLNNFYPREAKVQWKVDNALQSGNSQESVTEQDSKDSTYSLSSTLTLSKADYEKHKVYACEVTHQGLSSPVTKSFNRGEC
notes: heterodimerized; also called He Ab A330_05P
B10: GpH7-A5/GpH7-B3 variant A327_13S/GpL16-k0 (antibody, human IgG1, kappa)
heavy 1: not shown
heavy 2: not shown
light: DIVMTQSPLSLPVTPGEPASISCQASESLVHSNRNTYLHWYLQKPGQSPQLLIYKVSNRFSGVPDRFSGSGSGTDFTLKISRVEAEDVGVYYCSQNTHVPPTFGQGTKVEIERTVAAPSVFIFPPSDEQLKSGTASVVCLLNNFYPREAKVQWKVDNALQSGNSQESVTEQDSKDSTYSLSSTLTLSKADYEKHKVYACEVTHQGLSSPVTKSFNRGEC
notes: heterodimerized; also called He Ab A327_13S
B11: GpH7-A5/GpH7-B3 variant A327_06M/GpL16-k0 (antibody, human IgG1, kappa)
heavy 1: not shown
heavy 2: not shown
light: DIVMTQSPLSLPVTPGEPASISCQASESLVHSNRNTYLHWYLQKPGQSPQLLIYKVSNRFSGVPDRFSGSGSGTDFTLKISRVEAEDVGVYYCSQNTHVPPTFGQGTKVEIERTVAAPSVFIFPPSDEQLKSGTASVVCLLNNFYPREAKVQWKVDNALQSGNSQESVTEQDSKDSTYSLSSTLTLSKADYEKHKVYACEVTHQGLSSPVTKSFNRGEC
notes: heterodimerized; also called He Ab A327_06M
B12: GpH7-A5/GpH7-B3 variant A327_03V/GpL16-k0 (antibody, human IgG1, kappa)
heavy 1: not shown
heavy 2: not shown
light: DIVMTQSPLSLPVTPGEPASISCQASESLVHSNRNTYLHWYLQKPGQSPQLLIYKVSNRFSGVPDRFSGSGSGTDFTLKISRVEAEDVGVYYCSQNTHVPPTFGQGTKVEIERTVAAPSVFIFPPSDEQLKSGTASVVCLLNNFYPREAKVQWKVDNALQSGNSQESVTEQDSKDSTYSLSSTLTLSKADYEKHKVYACEVTHQGLSSPVTKSFNRGEC
notes: heterodimerized; also called He Ab A327_03V
B13: GpH7-A5/GpH7-B3 variant A327_10E/GpL16-k0 (antibody, human IgG1, kappa)
heavy 1: not shown
heavy 2: not shown
light: DIVMTQSPLSLPVTPGEPASISCQASESLVHSNRNTYLHWYLQKPGQSPQLLIYKVSNRFSGVPDRFSGSGSGTDFTLKISRVEAEDVGVYYCSQNTHVPPTFGQGTKVEIERTVAAPSVFIFPPSDEQLKSGTASVVCLLNNFYPREAKVQWKVDNALQSGNSQESVTEQDSKDSTYSLSSTLTLSKADYEKHKVYACEVTHQGLSSPVTKSFNRGEC
notes: heterodimerized; also called He Ab A327_10E
B14: GpH7-A5/GpH7-B3 variant A327_09D/GpL16-k0 (antibody, human IgG1, kappa)
heavy 1: not shown
heavy 2: not shown
light: DIVMTQSPLSLPVTPGEPASISCQASESLVHSNRNTYLHWYLQKPGQSPQLLIYKVSNRFSGVPDRFSGSGSGTDFTLKISRVEAEDVGVYYCSQNTHVPPTFGQGTKVEIERTVAAPSVFIFPPSDEQLKSGTASVVCLLNNFYPREAKVQWKVDNALQSGNSQESVTEQDSKDSTYSLSSTLTLSKADYEKHKVYACEVTHQGLSSPVTKSFNRGEC
notes: heterodimerized; also called He Ab A327_09D
B15: GpH7-A5/GpH7-B3 variant A327_07I/GpL16-k0 (antibody, human IgG1, kappa)
heavy 1: not shown
heavy 2: not shown
light: DIVMTQSPLSLPVTPGEPASISCQASESLVHSNRNTYLHWYLQKPGQSPQLLIYKVSNRFSGVPDRFSGSGSGTDFTLKISRVEAEDVGVYYCSQNTHVPPTFGQGTKVEIERTVAAPSVFIFPPSDEQLKSGTASVVCLLNNFYPREAKVQWKVDNALQSGNSQESVTEQDSKDSTYSLSSTLTLSKADYEKHKVYACEVTHQGLSSPVTKSFNRGEC
notes: heterodimerized; also called He Ab A327_07I
B16: GpH7-A5/GpH7-B3 variant A330_08L/GpL16-k0 (antibody, human IgG1, kappa)
heavy 1: not shown
heavy 2: not shown
light: DIVMTQSPLSLPVTPGEPASISCQASESLVHSNRNTYLHWYLQKPGQSPQLLIYKVSNRFSGVPDRFSGSGSGTDFTLKISRVEAEDVGVYYCSQNTHVPPTFGQGTKVEIERTVAAPSVFIFPPSDEQLKSGTASVVCLLNNFYPREAKVQWKVDNALQSGNSQESVTEQDSKDSTYSLSSTLTLSKADYEKHKVYACEVTHQGLSSPVTKSFNRGEC
notes: heterodimerized; also called He Ab A330_08L; GpH7-A5/GpH7-B3-20-08L/GpL16-k0

For one test, the target named is T1, FcγRIa (human, UniProt P12314 16-292).
T1 construct: extracellular domain; also called FcgRI; CD64
T1 sequence (P12314 16-292): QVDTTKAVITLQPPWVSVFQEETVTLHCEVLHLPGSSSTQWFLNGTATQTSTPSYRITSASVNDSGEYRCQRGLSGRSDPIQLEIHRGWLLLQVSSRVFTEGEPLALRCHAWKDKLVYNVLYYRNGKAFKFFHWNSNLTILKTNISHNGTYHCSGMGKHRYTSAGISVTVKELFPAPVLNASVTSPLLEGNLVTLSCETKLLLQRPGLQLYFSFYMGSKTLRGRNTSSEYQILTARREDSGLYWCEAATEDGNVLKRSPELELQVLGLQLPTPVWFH
The test can be described thus: SPR; vs GpH7-B3/GpL16-k0=100.
With B1, the Ho/Con_1a is 102 % of control.
Same read-out and setting: the value for B2 was 101 % of control; that for B3 was 104 % of control.
Same read-out and setting: the value for B4 was 101 % of control.
As to B5, the Ho/Con_1a is 102 % of control.
Still for that read-out and setting: the value for B6 was 101 % of control; that for B7 was 102 % of control.

A further test addresses T1, FcγRIa. The test can be described thus: SPR; vs GpH7-A5/GpH7-B3/GpL16-k0=100. (In general: In SPR one partner is held on a chip, and binding of the other changes the refractive index at the surface.)
Regarding B8, the He/Con_1a was 103 % of control.
Same read-out and setting: the value for B9 was 101 % of control; that for B10 was 102 % of control; that for B11 was 103 % of control.
The same measure, in the same setting: the value for B12 was 103 % of control; that for B13 was 103 % of control; that for B14 was 103 % of control.
The same measure, in the same setting: with B15 the figure was 104 % of control.
In the case of B16, the He/Con_1a was 107 % of control.
